Positions count from the first letter of the chain named. Where no end group is shown, it is not given here. [ ]: non-standard residue; d: D form. The star is where a group is joined. EDDnp = O=[N+]([O-])c1ccc(NCCN*)c([N+](=O)[O-])c1; AlaP = not defined here
Columns and labels:
[1] = biological target: T1, PR3I217R (Homo sapiens, UniProt P24158, I221R); experiment: Hydrolysis of FRET substrates, specificity constant kcat/KM; assay type: biochemical
T1 construct: made in house; host or cells: Drosophila S2 cells
T1 sequence (P24158 28-248 I221R limits assumed): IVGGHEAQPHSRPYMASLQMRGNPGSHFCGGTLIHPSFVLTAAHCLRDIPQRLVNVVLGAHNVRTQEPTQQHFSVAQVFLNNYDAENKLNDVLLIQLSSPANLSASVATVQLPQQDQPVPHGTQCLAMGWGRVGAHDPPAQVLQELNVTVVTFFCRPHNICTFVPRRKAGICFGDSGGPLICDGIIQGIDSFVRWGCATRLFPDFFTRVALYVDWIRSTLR
Description: (§1) Recombinant PR3K99L and […] were produced in Drosophila S2 cells using the calcium phosphate method, and stable cell lines were selected using puromycin. Proteins were purified by affinity chromatography on Chelating Sepharose and analyzed by SDS-PAGE. The total protein concentration was determined with a BCA Protein Assay
(§2) Another critical difference between the two proteases is the replacement of a charged arginyl residue at position 217 in HNE by an Ile in PR3 in the vicinity of the S4 subsite. We investigated the importance of the S4 subsite in PR3 by producing two recombinant PR3 molecules with a […] substitution at position 99 (PR3K99L) and an Ile for Arg substitution at position 217 (PR3I217R). Wild type and recombinant PR3 were then assayed with FRET substrates derived from the PR3/NE substrate Abz-QPMAVVQSVPQ-EDDnp, and bearing either a negatively charged residue (Abz-QDMAVVQSVPQ-EDDnp) or a positively charged residue (QKMAVVQSVPQ-EDDnp) at P4. Wild type and recombinant proteases all cleave the original substrate at the V—V bond with about the same kcat/Km (Table 2).

[2] = biological target: T2, PR3K99L (Homo sapiens, UniProt P24158, K115L); experiment: as above; assay type: biochemical
T2 construct: made in house; host or cells: Drosophila S2 cells
T2 sequence (P24158 28-248 K115L limits assumed): T1 sequence (P24158 28-248 I221R limits assumed) with K88L, R194I
Description: as §1, §2

[3] = biological target: T3, wtPR3 (Homo sapiens, UniProt P24158); experiment: as above; assay type: biochemical
T3 sequence (P24158 28-248): T1 sequence (P24158 28-248 I221R limits assumed) with R194I
Description: as §2
We observed that a large panel of amino acid residues could be accommodated at the PR3 P3 subsite using a series of FRET substrates but a Tyr was preferred at this position (Table 3).

[4] = biological target: T4, PR3 (Homo sapiens, UniProt P24158); experiment: Inhibition of PR3 in a lysate of purified human neutrophils; assay type: biochemical; conditions: conditions as with purified proteases
T4 construct: in a lysate of purified human neutrophils; endogenous in cells; host or cells: purified human neutrophils (lysate)
T4 sequence (P24158 28-248): T1 sequence (P24158 28-248 I221R limits assumed) with R194I
Description: (§3) We first studied the stability and the selectivity of compound 1, 2 and their biotinylated derivatives in a lysate of purified human neutrophils. […] Further, PR3 was selectively inactivated in the neutrophil lysate as shown by western blotting using biotinylated inhibitors.

[5] = biological target: T5, Proteinase 3 (Homo sapiens, UniProt P24158); experiment: Protease inhibition assay, second order rate constant kobs/[I] (method of Tian and Tsou); assay type: biochemical
T5 sequence (P24158 28-248): T1 sequence (P24158 28-248 I221R limits assumed) with R194I
Description: The compounds of the invention are advantageously selective inhibitors of PR3. […] As described under the Examples below (see PR3 inhibition assay), and as is generally known, efficacy of particular inhibitors against a target protease, for example, recombinant human PR3, is determined by combining the target with a substrate (for example Suc-AanV-SBzI), both in the absence of the inhibitor and in the present of different concentrations of such inhibitor to be tested. Typically, the efficacy of irreversible inhibitors are measured in terms of the second order rate constant of inhibition value (11) or kobs/l. Preferred inhibitors of the invention have typically a kobs/I of more than 10 M^−1s^−1, preferably more than 100 M^−1s^−1, and more preferably of more than […].
(§4) The inactivation of proteases by substrate analog inhibitors in the presence of the substrate by competition for the enzyme-binding site, was measured by the method of Tian and Tsou (17). In this system, product formation in the presence of an irreversible inhibitor approaches an asymptote, as described by
(§5) log([P∞]−[P])=log [P∞]−0.43A[Y]t
(§6) where [P∞] is the concentration of product formed at time approaching infinity, [P] is the concentration of product at time t, [Y] is the inhibitor concentration, and A is the apparent inhibition rate constant in the presence of the substrate. A is given by
(§7) where k+0 is the rate constant for association of the inhibitor with the enzyme, K^−1 is the inverted Michaelis constant, and [S] the substrate concentration. The apparent inhibition rate constant A is the slope of a plot of log([P∞]−[P]) against t, to give the second-order rate constant of inhibition k+0

[6] = biological target: T4, PR3; experiment: Residual activity of purified protease with FRET substrate in presence of increasing amounts of compound; assay type: biochemical; conditions: PR3 1 nM final, 30 min incubation
Description: (§8) Phosphonate inhibitors and their biotinylated and fluorescent derivatives were synthesized, purified and controlled by mass spectrometry as reported. Their purity was checked by HPLC (data not shown). Purified Ac-Asp-Tyr-Asp-Ala^P(O—C6H4-4-Cl)2 (compound 1) and Ac-Pro-Tyr-Asp-Ala^P(O—C6H4-4-Cl)2 (compound 2) were first assayed for their inhibitory properties by measuring the residual activity of the human neutrophil serine proteases PR3, HNE and CatG in the presence of increasing amounts of each compound. We used for this purpose the FRET substrates that we developed previously for each protease (18). An almost complete inhibition of PR3 (1 nM final) was obtained after a 30 min incubation time with 20 μM of compound 1 (FIG. 1) and 0.3 μM of compound 2 (FIG. 2). Recombinant PR3K99L, […], HNE and CatG were used in the same experimental conditions. […] This emphasizes the importance of the S2 and S4 subsites to discriminate between PR3 and HNE specificities. Significant inhibition of HNE was obtained using about 100 times more Ac-Pro-Tyr-Asp-Ala^P(O—C6H4-4-Cl)2 than required to inhibit PR3. […] We confirmed this observation kinetically by measuring the second order rate constants kobs/l by competition experiments between the PR3 substrate and each inhibitor (17). As expected the second order rate constant kobs/l for compound 2 was about 100 times greater than that for compound 1 (see Table 1).

[7] = biological target: T6, HNE (Homo sapiens, UniProt P08246); experiment: as above; assay type: biochemical; conditions: HNE 1 nM, same experimental conditions as PR3
T6 sequence (P08246 30-267): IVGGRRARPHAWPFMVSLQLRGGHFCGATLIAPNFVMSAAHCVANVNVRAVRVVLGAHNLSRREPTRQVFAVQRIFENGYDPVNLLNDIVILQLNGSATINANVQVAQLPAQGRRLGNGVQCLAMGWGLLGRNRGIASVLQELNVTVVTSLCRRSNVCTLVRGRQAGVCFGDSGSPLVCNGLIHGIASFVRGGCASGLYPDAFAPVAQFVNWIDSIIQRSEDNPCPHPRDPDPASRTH
Description: as §8

[8] = biological target: T7, CatG (Homo sapiens, UniProt P08311); experiment: as above; assay type: biochemical; conditions: CatG 1 nM, same experimental conditions as PR3
T7 sequence (P08311 21-244): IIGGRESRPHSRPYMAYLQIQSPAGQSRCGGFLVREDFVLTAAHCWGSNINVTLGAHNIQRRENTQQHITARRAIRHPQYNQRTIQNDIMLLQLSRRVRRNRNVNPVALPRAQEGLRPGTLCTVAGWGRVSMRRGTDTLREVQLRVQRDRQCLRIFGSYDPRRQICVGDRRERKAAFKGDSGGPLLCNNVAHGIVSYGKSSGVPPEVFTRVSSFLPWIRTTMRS
Description: as §8

[9] = biological target: T1, PR3I217R; experiment: Residual activity of recombinant PR3 mutant in presence of increasing amounts of compound; assay type: biochemical
Description: as §1, §8

[10] = biological target: T2, PR3K99L; experiment: as above; assay type: biochemical; conditions: Lys99 replaced by Leu in S2 subsite
Description: as §1, §8

[11] = biological target: T8, Elastase (Homo sapiens, UniProt P08246); experiment: Protease inhibition assay, second order rate constant kobs/[I] (method of Tian and Tsou); assay type: biochemical; conditions: n.s where no significant inhibition
T8 sequence (P08246 30-267): T6 sequence (P08246 30-267)
Description: as §4, §5, §6, §7

[12] = Stability of inhibitors in neutrophil lysate (preincubation before adding substrates); assay type: in vitro ADME, human; conditions: one hour preincubation of neutrophil lysate-inhibitor mixture
Description: as §3

[13] = biological target: T7, CatG; experiment: Inhibition of protease activity in crude lung secretions of patients (IPF, cystic fibrosis); assay type: biochemical; conditions: 30 min incubation, IPF and CF samples
[14] = biological target: T6, HNE; experiment: as above; assay type: biochemical; conditions: 30 min incubation, IPF and CF samples
[15] = biological target: T4, PR3; experiment: as above; assay type: biochemical; conditions: 30 min incubation, IPF and CF samples
Description: Crude lung secretions of patients with chronic inflammatory disorders associating significant neutrophil recruitment (IPF, Cystic fibrosis) were used as biological material to assay the efficacy of phosphonate inhibitors. We first measured the rate of cleavage of the PR3 substrate in >3 IPF and >3 CF crude samples before and after incubation with compounds 2 and 4 (×μM final). All crude samples cleaved the PR3 substrate in the absence of inhibitor and the cleavage always occurred at the expected bond, i.e. the cleavage bond of PR3, as checked by HPLC. The PR3 concentration was in the 0.1-1 μM range in lung secretions, based on the rate of substrate hydrolysis. […] Further, the rate of PR3 inactivation in a crude biological sample […] that of purified PR3, which means that there is no adverse effect impairing the PR3 inhibition in lung secretions of patients with inflammatory disorders.

Substance | factor of increase of kcat/Km versus original substrate, PR3I217R [1] | cleavage by PR3K99L [2] | factor of decrease of kcat/Km versus original substrate, wtPR3 [3] | PR3 activity in neutrophil lysate [4] | Proteinase 3 kobs/[I] [5] | concentration giving almost complete inhibition of PR3 [6] | inhibition of HNE [7] | inhibition of CatG [8] | inhibition of the Ile217 to Arg217 PR3 mutant compared with PR3K99L [9] | sensitivity of PR3K99L to inhibition compared with wt PR3 [10] | Elastase kobs/[I] [11] | inhibition potential after preincubation in neutrophil lysate [12] | CatG activity in crude lung secretions [13] | kobs/I range ([5]; PR3) | HNE activity in crude lung secretions [14] | hydrolysis of PR3 substrate in crude lung secretions [15]
ABZ-Gln-Asp-Met-Ala-Val-Val-Gln-Ser-Val-Pro-Gln-EDDnp (Abz-QDMAVVQSVPQ-EDDnp) [FRET substrate with negatively charged residue at P4] | 6 times | completely resists cleavage | 3 |  |  |  |  |  |  |  |  |  |  |  |  | 
Ac-Asp-Tyr-Asp-Ala^P(O—C6H4-4-Cl)2 (Ac-DYD[AlaP]; not fully specified (C-terminus); printed as Ac-Asp-Tyr-Asp-Ala^P(O—C6H4-4-Cl)2; reading uncertain; also: C-terminal Ala as phosphonate analogue (Ala^P)) [Compound 1] |  |  |  | totally inactivated | 1.9 ± 0.3 M⁻¹ s⁻¹ | 20 µM | no significant inhibition | no significant inhibition | more efficient toward this mutant | far less sensitive to inhibition | n.s | No loss of the inhibition potential |  |  |  | 
Biotin-Pro-Tyr-Asp-Ala^P(O—C6H4-4-Cl)2 [Compound 4] |  |  |  |  | 4168 ± 553 M⁻¹ s⁻¹ |  |  |  |  |  | n.s |  | remained unchanged | ~10^3 M^−1s^−1 | remained unchanged | total inhibition
